In ChEMBL document CHEMBL2074196, “Drug absorption limited by P-glycoprotein-mediated secretory drug transport in human intestinal epithelial Caco-2 cell layers” (Pharm Res, 1993) one finds Km data, which are given here for one substance.

A word on the Km: it is the substrate concentration at which the rate is half of its maximum.

The subject of this data set is CC[C@]1(O)C[C@@H]2CN(CCc3c([nH]c4ccccc34)[C@@](C(=O)OC)(c3cc4c(cc3OC)N(C)[C@H]3[C@@](O)(C(=O)OC)[C@H](OC(C)=O)[C@]5(CC)C=CCN6CC[C@]43[C@@H]65)C2)C1. The data set can be described thus: TP_TRANSPORTER: transepithelial transport (basal to apical) in Caco-2 cells. The data set is classed as functional, cell-based. On the technique in general: Caco-2 monolayers are a common model of the intestinal barrier.

With “ATP-dependent translocase ABCB1 (Homo sapiens)”, the Km turned out to be 19 µM.
